Results on one protein are retold here after paper PMC3755335, “Inactivation of the phosphoglucomutase gene pgm in Corynebacterium glutamicum affects cell shape and glycogen metabolism” (Bioscience Reports, 2013).

Substrate in series [1]: O=P(O)(O)O[C@H]1O[C@H](CO)[C@@H](O)[C@H](O)[C@H]1O
The series is described as follows: coupled assay with glc-6-P dehydrogenase (NADP reduction). It counts as biochemical, Corynebacterium glutamicum. The following applies: 100 mM Tris/HCl pH 7.4, 10 mM MgCl2, 1 mM NADP, 2 units glc-6-P dehydrogenase, glc-1-P 0.05–20 mM.

Series [2] deals with the molecule itself. Briefly: SEC; HiLoad XK16/60 Superdex 200 PrepGrade, 0.02 M sodium phosphate, 0.15 M NaCl, pH 7.4, 0.5 ml/min; fractions screened by Pgm activity; retention volume compared with standard proteins (LMW and HMW calibration kits).

B1: phosphoglucomutase Pgm (main Pgm isoenzyme, encoded by pgm, cg2800) of Corynebacterium glutamicum (enzyme, UniProt Q8NMN0 1-554, looked up)
chain: MAHERAGQLAQPEDLIDVAELVTAYFTRKPDVNNPDQQVAFGTSGHRGSALDSAFNEDHILATTQAIVDYRNQQPKNWVGPLFIGRDTHALSEPAMISALEVLIANDVEVLVDADGRYTPTPAVSHAILRHNDGIILGTAGPSRPYADGIVITPSHNPPRDGGFKYNPANGGPADTDATDWIANRANDILRGDLADVKRVPVSGVLDERTTAYDFKGIYIADLPNVVNIDAIREAGVRIGADPMGGASVDYWGAIAETHGLNLTVVNPHVDSTFRFMTLDTDGKIRMDCSSPHAMASLIDNRDKFDVATGNDADADRHGIVTPDAGLMNPNHYLAVAIEYLFAHRPGWSADTAVGKTLVSSSMIDRVVAQLGRTLVEVPVGFKWFVPGLISGEIGFGGEESAGASFLRMDGTTWSTDKDGLILDLLAAEIIAVTGKTPSQRYAELAEEFGAPAYARTDAEANREQKAILKALSPEQVTATELAGEAITAKLTEAPGNGAAIGGLKVTTENAWFAARPSGTEDKYKIYAESFKGEEHLAQVQKEAQALVSEVLGQ
notes: Phosphoglucomutase Pgm of Corynebacterium glutamicum, ORF cg2800 (pgm), native enzyme; band of approx. 60 kDa on SDS/PAGE assigned to cg2800 by MALDI-TOF-MS peptide fingerprinting; Endogenous, untagged enzyme; the final gel filtration fraction still held a second band (approx. 80 kDa, cg2523, malQ); also called α-Pgm; pgm gene product
Take B1: in series [1], the Michaelis-Menten constant (Km) stood at 1410 ± 230 µM. For the same protein, the “stoichiometry N” value in series [2] is 2.
